Source: article doi:10.1101/2020.09.10.291369, “In vivo and in vitro mechanistic characterization of a clinically relevant PolγA mutation”

Biological target: T1, POLγA WT (UniProt P54099 26-1218)
T1 sequence: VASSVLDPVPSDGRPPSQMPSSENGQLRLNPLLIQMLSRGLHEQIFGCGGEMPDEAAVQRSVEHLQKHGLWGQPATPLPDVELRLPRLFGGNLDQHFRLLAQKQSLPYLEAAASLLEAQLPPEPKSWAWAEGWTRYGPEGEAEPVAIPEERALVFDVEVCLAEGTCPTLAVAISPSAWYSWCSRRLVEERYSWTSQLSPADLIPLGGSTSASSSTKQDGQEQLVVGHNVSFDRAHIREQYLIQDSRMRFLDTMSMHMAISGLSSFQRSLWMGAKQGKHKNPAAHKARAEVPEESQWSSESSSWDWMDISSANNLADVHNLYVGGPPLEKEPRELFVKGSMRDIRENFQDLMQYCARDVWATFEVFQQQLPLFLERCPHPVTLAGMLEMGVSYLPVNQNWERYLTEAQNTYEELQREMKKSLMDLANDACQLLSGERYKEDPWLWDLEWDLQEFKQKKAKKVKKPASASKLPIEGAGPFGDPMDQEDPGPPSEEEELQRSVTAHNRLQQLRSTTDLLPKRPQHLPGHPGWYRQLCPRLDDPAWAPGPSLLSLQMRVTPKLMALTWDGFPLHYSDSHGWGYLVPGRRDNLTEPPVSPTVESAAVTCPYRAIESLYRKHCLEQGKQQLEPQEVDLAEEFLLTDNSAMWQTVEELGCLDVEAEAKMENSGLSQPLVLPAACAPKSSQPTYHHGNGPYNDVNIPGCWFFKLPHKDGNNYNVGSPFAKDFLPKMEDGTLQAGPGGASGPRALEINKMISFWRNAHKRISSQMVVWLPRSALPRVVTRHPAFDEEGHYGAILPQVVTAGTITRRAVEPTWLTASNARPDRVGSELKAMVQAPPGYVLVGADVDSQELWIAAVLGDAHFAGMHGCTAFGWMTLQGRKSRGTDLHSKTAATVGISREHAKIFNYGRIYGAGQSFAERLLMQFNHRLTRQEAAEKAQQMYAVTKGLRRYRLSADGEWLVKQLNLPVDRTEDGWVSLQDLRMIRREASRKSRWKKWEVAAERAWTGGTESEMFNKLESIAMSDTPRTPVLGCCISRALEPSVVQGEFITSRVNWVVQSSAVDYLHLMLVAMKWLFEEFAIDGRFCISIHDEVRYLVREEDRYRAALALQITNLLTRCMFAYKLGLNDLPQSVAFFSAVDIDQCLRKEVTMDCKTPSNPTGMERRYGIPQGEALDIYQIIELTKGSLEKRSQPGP
Experiment: EMSA; POLγA alone; 10 mM MgCl2, ddGTP, dCTP, ATP; Kd in Suppl. Fig. 5A, value not in material; EMSA: 10 fmol DNA in 15 µl, 20 mM Tris-HCl pH 7.8, 1 mM DTT, 0.1 mg/ml BSA, 10 mM MgCl2, 10% glycerol, 2 mM ATP, 0.3 mM ddGTP, 3 mM dCTP, RT 10 min; 6% native PAGE 0.5x TBE
Conditions: protein: recombinant; label: 5'-32P on strand 2 (21-mer); 5' overhang 15 nt on strand 1; 21 bp duplex; primer-template

B1: 36-nt/21-nt primed template (mixed)
DNA 1: TTTTTTTTTTATCCGGGCTCCTCTAGACTCGACCGC
DNA 2: GCGGTCGAGTCTAGAGGAGCC
Q: Does B1 bind?
A: Result: binds
